Data reported in article PMC5663869.

Tests used:
H3K4me1 (1-21) = assay: ITC; iTC200, 25 °C, stirring 800 rpm; sample 150–260 μM, titrant 1.5–4 mM; one-site binding model; the figure legends on these data give mean ± S.D. (n = 4)
H3K4me2 (1-21) = assay: as above
H3T6C (1-21) = assay: as above
H3K4me3 (1-21) = assay: as above
H3K14ac T6C = assay: as above
H3K4me3K14ac = assay: as above
H3K4me2K14ac = assay: as above
H3K4me1K14ac = assay: as above
BAZ2B PHD–BRD (human) [1] = molecular target: BAZ2B PHD–BRD (human) (UniProt Q9UIF8); assay: ITC; iTC200, 25 °C; 150–260 μM sample, 1.5–4 mM titrant; one-site binding model; n = 4
BAZ2B PHD domain (human) = BAZ2B PHD domain (human) (UniProt Q9UIF8); assay: as above
BAZ2B PHD–BRD (human) [2] = molecular target: BAZ2B PHD–BRD (human) (UniProt Q9UIF8); assay: NMR titration; H3K14ac titrated into 15N-labelled PHD–BRD at peptide/protein ratios 0.5, 1, 1.5, 2 and 4; Kd estimated apart from BRD and from PHD residues

Chain of H3T6C (1-21) (peptide, as listed by the source T6C (stands in the printed letters)): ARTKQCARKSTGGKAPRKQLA
Chain of BAZ2B PHD-BRD WT (Q9UIF8 whole entry, the tested form may be a part): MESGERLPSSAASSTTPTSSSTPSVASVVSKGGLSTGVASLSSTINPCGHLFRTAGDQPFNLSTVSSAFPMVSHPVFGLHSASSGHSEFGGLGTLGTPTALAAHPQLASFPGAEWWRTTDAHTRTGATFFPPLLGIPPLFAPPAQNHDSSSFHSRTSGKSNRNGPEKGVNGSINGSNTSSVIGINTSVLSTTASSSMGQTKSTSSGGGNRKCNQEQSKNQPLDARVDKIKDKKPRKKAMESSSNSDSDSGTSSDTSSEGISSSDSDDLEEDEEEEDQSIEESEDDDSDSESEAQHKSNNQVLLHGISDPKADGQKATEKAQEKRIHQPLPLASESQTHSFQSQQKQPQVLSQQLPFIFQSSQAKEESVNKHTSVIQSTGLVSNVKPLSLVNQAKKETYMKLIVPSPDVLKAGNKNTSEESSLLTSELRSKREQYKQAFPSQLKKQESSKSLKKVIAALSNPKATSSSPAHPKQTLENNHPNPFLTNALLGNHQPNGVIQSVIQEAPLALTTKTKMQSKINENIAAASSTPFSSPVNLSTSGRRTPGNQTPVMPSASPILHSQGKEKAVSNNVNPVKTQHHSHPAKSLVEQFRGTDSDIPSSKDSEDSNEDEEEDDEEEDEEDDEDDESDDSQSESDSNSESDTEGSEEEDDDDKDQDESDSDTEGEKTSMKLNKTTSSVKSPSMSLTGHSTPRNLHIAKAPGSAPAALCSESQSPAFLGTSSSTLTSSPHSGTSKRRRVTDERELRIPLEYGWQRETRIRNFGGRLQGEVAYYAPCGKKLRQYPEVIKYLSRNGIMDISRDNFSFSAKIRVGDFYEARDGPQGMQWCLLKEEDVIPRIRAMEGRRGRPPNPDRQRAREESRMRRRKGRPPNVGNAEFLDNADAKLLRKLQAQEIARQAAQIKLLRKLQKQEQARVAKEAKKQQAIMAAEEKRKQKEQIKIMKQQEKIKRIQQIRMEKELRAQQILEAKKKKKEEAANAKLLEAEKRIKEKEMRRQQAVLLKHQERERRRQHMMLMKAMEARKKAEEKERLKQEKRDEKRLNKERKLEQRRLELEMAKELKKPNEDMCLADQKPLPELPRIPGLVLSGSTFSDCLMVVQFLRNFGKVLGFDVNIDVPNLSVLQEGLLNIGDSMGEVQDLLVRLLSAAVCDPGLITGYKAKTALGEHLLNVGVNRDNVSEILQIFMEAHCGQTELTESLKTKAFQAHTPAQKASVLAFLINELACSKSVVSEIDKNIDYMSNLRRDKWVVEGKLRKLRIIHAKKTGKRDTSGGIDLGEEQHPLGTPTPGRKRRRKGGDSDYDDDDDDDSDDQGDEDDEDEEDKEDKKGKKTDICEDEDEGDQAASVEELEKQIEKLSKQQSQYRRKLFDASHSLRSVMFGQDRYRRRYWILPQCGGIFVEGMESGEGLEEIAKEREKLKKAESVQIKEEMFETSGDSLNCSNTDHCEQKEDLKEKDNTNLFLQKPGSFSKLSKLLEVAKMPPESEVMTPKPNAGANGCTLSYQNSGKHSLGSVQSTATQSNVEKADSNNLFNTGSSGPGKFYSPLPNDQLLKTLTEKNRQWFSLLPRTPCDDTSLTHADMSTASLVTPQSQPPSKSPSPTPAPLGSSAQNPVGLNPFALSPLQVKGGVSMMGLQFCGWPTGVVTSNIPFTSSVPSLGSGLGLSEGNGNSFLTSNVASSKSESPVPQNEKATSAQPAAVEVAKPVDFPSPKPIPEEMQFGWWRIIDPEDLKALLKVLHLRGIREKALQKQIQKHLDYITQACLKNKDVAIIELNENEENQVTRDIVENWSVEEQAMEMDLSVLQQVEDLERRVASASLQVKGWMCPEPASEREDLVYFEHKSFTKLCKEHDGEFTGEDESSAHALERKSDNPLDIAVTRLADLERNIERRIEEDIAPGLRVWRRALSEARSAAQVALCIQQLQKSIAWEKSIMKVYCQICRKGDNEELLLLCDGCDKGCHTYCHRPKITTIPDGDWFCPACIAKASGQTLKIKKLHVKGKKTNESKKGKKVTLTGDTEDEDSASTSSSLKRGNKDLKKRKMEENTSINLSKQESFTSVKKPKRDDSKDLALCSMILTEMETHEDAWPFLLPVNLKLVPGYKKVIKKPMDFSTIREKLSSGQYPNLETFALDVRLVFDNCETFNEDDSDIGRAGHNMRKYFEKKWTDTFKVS
Chain of BAZ2B PHD–BRD (human) (Q9UIF8 whole entry, the tested form may be a part): as above
Chain of BAZ2B PHD domain (human) (Q9UIF8 whole entry, the tested form may be a part): as above

| Kd (H3K4me1 (1-21)) [µM] | stoichiometry N (H3K4me1 (1-21)) | Kd (H3K4me2 (1-21)) [µM] | stoichiometry N (H3K4me2 (1-21)) | Kd (H3T6C (1-21)) [µM] | stoichiometry N (H3T6C (1-21)) | Kd (H3K4me3 (1-21)) [µM] | stoichiometry N (H3K4me3 (1-21)) | Kd (H3K14ac T6C) [µM] | stoichiometry N (H3K14ac T6C) | Kd (BAZ2B PHD–BRD (human) [1]) [µM] | Kd (BAZ2B PHD domain (human)) [µM] | Substance | also measured |
| --- | --- | --- | --- | --- | --- | --- | --- | --- | --- | --- | --- | --- | --- |
| 10.2 | 0.82 | 12.4 | 0.71 | 33.2 | 0.74 | 23.9 | 0.73 | 27 | 4.86 |  |  | BAZ2B PHD WT (from UniProt Q9UIF8 1-2168) (domain or fragment) |  |
| 88.4 | 1.94 | 123 | 1.76 | 148 | 1.59 | 130 | 1.89 | 50.4 | 2.92 |  |  | BAZ2B PHD-BRD WT (from UniProt Q9UIF8 1-2168) (domain or fragment) | Kd (H3K4me3K14ac): 6.99 µM; stoichiometry N (H3K4me3K14ac): 0.54; Kd (H3K4me2K14ac): 18.9 µM; stoichiometry N (H3K4me2K14ac): 0.45; Kd (H3K4me1K14ac): 26.9 µM; stoichiometry N (H3K4me1K14ac): 0.54 |
|  |  |  |  |  |  |  |  |  |  | 115 | 23.1 | histone H3(1–10aa) peptide (from UniProt P68431 2-11) |  |
|  |  |  |  |  |  |  |  |  |  | 54 | 5.78 | histone H3(1–21aa) peptide, unmodified (from UniProt P68431 2-22) |  |
|  |  |  |  |  |  |  |  |  |  |  |  | histone H3(1–21aa)K14ac peptide (from UniProt P68431 2-22) | Kd estimated from BRD residues (BAZ2B PHD–BRD (human) [2]): > 8 µM; Kd estimated from PHD residues (BAZ2B PHD–BRD (human) [2]): > 190 µM |
|  |  |  |  |  |  |  |  |  |  | > 2000 | > 4000 | histone H3(11–21aa) peptide (from UniProt P68431 12-22) |  |
